From US20110064733A1

Columns and labels:
[1] = molecular target: Muc1 as expressed by DS6 negative & CM1 positive cell lines (KLE, OVCAR3, SKOV3), without the CA6 glycotope (human) (UniProt P15941); assay: flow cytometry on OVCAR3 cells
[2] = molecular target: Muc1 as expressed by DS6 negative & CM1 positive cell lines (KLE, OVCAR3, SKOV3), without the CA6 glycotope (human) (UniProt P15941); assay: flow cytometry on SKOV3 cells
[3] = molecular target: Muc1 as expressed by DS6 negative & CM1 positive cell lines (KLE, OVCAR3, SKOV3), without the CA6 glycotope (human) (UniProt P15941); assay: flow cytometry on KLE cells
[4] = molecular target: Muc1 as expressed by DS6 negative & CM1 positive cell lines (KLE, OVCAR3, SKOV3), without the CA6 glycotope (human) (UniProt P15941); assay: flow cytometry on KLE cells (DS6 negative)
[5] = molecular target: Muc1 as expressed by DS6 negative & CM1 positive cell lines (KLE, OVCAR3, SKOV3), without the CA6 glycotope (human) (UniProt P15941); assay: flow cytometry on SKOV3 cells (DS6 negative)
[6] = molecular target: Muc1 as expressed by DS6 negative & CM1 positive cell lines (KLE, OVCAR3, SKOV3), without the CA6 glycotope (human) (UniProt P15941); assay: flow cytometry on OVCAR3 cells (DS6 negative)

Substance | MMF (maximum mean relative fluorescence) (relative fluorescence) [1] | MMF (maximum mean relative fluorescence) (relative fluorescence) [2] | MMF (maximum mean relative fluorescence) (relative fluorescence) [3] | MMF (maximum mean relative fluorescence) (relative fluorescence) [4] | MMF (maximum mean relative fluorescence) (relative fluorescence) [5] | MMF (maximum mean relative fluorescence) (relative fluorescence) [6]
CM1 antibody (Muc1 VNTR antibody) | 192 | 49.4 | 562 | – | – | –
murine anti-CA6 monoclonal antibody DS6 | – | – | – | 27.5 | 17.5 | 21.2
